Source: patent publication US20250332297A1, “DLL3-SPECIFIC BINDING CONSTRUCTS AND THEIR USE IN RADIOTHERAPY” (MOLECULAR PARTNERS AG, priority 2024, published 2025)

Key:
human serum albumin = biological target: T1, human serum albumin (human, UniProt P02768 25-609); assay: SPR (Bruker Sierra SPR-32), HSA on chip, DARPin as analyte, 1:1 Langmuir fit
T1 construct: also called HSA
Experimental: (§1) Similarly, a SPR assay was used to determine the binding kinetics to human or mouse serum albumin. […] All analytes (3-fold dilution ranging from 1000-12.35 nM) were injected in succession for 240 s (25 μl/min) and dissociation was recorded for 600 s (25 μl/min).

[1] = biological target: T2, hDLL3 ECD-Avi-Fckih (biotinylated extracellular domain of human DLL3, residues 27 to 466, Avi-tag, 3C site, … (human, UniProt Q9NYJ7 27-466, biotinylated at the Avi-tag)); assay: SPR (ProteOn), biotinylated hDLL3 ECD-Avi-Fckih on chip, DARPin as analyte, 1:1 Langmuir fit
T2 construct: The make-up of the second Fc chain of the knob-into-hole pair is not described; also called bio-DLL3; recombinant human DLL3; not shown: Avi-tag, 3C protease recognition site and Fc knob into hole
T2 sequence: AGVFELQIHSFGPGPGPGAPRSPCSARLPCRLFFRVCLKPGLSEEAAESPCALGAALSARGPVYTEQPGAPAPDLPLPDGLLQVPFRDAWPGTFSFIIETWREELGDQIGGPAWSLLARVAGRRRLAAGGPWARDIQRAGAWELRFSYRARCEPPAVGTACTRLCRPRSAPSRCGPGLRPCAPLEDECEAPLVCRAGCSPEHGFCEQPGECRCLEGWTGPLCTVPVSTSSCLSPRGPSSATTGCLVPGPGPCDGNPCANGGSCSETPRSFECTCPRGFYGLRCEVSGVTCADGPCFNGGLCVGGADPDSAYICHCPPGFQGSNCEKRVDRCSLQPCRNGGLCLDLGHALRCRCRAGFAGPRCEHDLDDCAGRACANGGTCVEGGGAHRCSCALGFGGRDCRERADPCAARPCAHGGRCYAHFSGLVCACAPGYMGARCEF
Experimental: Kinetic binding parameters and binding affinities of two domain (2D) ankyrin repeat proteins comprising an ankyrin repeat domain with binding specificity for DLL3 and an ankyrin repeat domain with binding specificity for serum albumin were determined by surface plasmon resonance (SPR) multi-trace analysis.
In brief, a SPR assay was used to determine the binding kinetics to the target human DLL3. The data were generated using BioRad ProteOn instrument in SPR running buffer (PBS, pH 7.4 containing 0.005% Tween 20®). […] The chip was coated with biotinylated target (bio-DLL3) to reach a signal intensity of 1780 RU. […] Each injection was followed by a regeneration step with 16 mM H₃PO₄ for 18 s. […] The bio-DLL3 target used was as described in U.S. 63/550,951, i.e. the extracellular domain (ECD) of human DLL3 protein (Q9NYJ7, Gene ID: 10683, residues 27 to 466; purchased from Evitria) linked via an Avi-tag (for site-directed biotinylation), followed by a 3C protease recognition site, to a Fc knob into hole (hDLL3 ECD-Avi-Fcₖᵢₕ).

mouse serum albumin = biological target: T3, mouse serum albumin (mouse, UniProt P07724 25-608); assay: SPR (Bruker Sierra SPR-32), MSA on chip, DARPin as analyte, 1:1 Langmuir fit
T3 construct: also called MSA
Experimental: as §1

[2] = biological target: T4, Human DLL3 expressed on cells (HEK293T-hDLL3, NCI-H82, SHP-77, MC38-hDLL3) (human, UniProt Q9NYJ7 27-618); assay: flow cytometry titration on HEK293T-hDLL3 cells, without HSA
T4 construct: also called DLL3 endogenously expressed on human cells
T4 sequence: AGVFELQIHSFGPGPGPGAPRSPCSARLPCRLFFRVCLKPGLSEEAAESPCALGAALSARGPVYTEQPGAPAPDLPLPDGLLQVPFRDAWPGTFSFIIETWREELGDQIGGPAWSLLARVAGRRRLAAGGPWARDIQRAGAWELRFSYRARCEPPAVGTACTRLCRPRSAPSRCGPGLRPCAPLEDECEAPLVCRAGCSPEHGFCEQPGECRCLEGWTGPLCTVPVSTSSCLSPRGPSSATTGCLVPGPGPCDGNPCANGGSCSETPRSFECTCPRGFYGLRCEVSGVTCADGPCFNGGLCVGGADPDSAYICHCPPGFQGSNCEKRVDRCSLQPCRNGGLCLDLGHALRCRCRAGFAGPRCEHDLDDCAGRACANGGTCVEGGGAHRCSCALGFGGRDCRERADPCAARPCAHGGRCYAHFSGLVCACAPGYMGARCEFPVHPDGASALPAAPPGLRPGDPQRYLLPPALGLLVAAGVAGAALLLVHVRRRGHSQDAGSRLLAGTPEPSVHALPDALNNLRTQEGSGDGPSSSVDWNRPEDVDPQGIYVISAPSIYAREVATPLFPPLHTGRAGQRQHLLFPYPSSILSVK
Experimental: (§2) Cell binding titration assays were performed for selected His-tagged single domain (1 D) and two domain (2D) designed ankyrin repeat proteins to determine binding to human DLL3 expressed on HEK293T-huDLL3 cells in absence and presence of human serum albumin. […] HEK293T-hDLL3 cells are HEK293T cells that were stably transfected to express human DLL3 on their surface.
(§3) In brief, 1×10⁵ cells/well were resuspended in 100 μl DARPin dilution (500 nM, 1:5 serial diluted) and incubated for 1 h at 4° C. Cells were washed twice with PBS and resuspended in 100 μl anti-DARPin antibody (rabbit anti-DARPin 1.4.8) and LIVE/DEAD fixable cell stain (1:1000, Thermo Fisher #L34957). This step was performed in absence and presence of […] Human Serum Albumin (CSL Behring #150570). After incubation and washing, cells were incubated with detection antibody for 30 minutes (Goat […] IgG (H+L), AF647, Thermo Fisher #21445). Cells were fixed (Paraformaldehyde Solution, LucernaChem) and acquired at Attune N×T (Thermo Life Technologies). Raw fcs files were exported and analyzed using FlowJo software. MFI values of live AF647-positive cells were exported from FlowJo and plotted using GraphPad Prism software.

[3] = biological target: T4, Human DLL3 expressed on cells …; assay: flow cytometry titration on HEK293T-hDLL3 cells, with HSA
Experimental: as §2, §3

[4] = Dose response finding (tolerability) in WT CD1 mice
[5] = Pharmacokinetic analysis in WT BALBc mice (serum, ELISA); type: in vivo, mouse; conditions: 1 mg/kg i.v.
From the text: The pharmacokinetic (PK) properties of lead-labelled DARPin (MAM160, MAM279, MAM282, MAM283) conjugates were investigated in mice, including to determine the terminal half-life (or serum half-life) of these conjugates.
In brief, DARPins MAM279, MAM283, MAM160 and MAM282 were conjugated to the chelator DOTAM, via a C-terminal Cysteine containing tag and a connector, as described in Example 3. The conjugates were then labelled with natural lead (Pb). The protein components of the conjugates corresponded to SEQ ID NOs: 15 to 18, respectively. These lead-labelled DARPin conjugates were injected i.v. at 1 mg/kg into WT BALBc mice. Serum was collected 2 min, 10 min, 30 min, 1 h, 4 h, 24 h, 48 h, and 72 h post-injection. DARPins were detected and measured by ELISA. The data were expressed as the DARPin concentration in serum (nmol/L).
In brief, lead-labelled MAM279 conjugate, as described in Example 13, was injected i. at 0.1 mg/kg or at 1 mg/kg into the tail vein of WT BALBc mice. Serum was collected 2 min, 10 min, 30 min, 1 h, 4 h, 24 h, 48 h, and 72 h post-injection for MAM279 conjugate injected at 1 mg/kg, and 2 min, 30 min, 4 h, 24 h, 30 h, 48 h, 72 h, 96 h, and 168 h post-injection for MAM279 conjugate injected at 0.1 mg/kg. DARPins were detected and measured by ELISA. The data were expressed as the DARPin concentration in serum (nmol/L).
In brief, natural lead-labelled MAM279 conjugate, as described in Example 13, was injected i.v. at different doses (0.001 mg/kg, 0.01 mg/kg, 0.1 mg/kg, or 1 mg/kg) into the tail vein of WT BALBc mice. Similarly, unconjugated Rova was injected iv. at 1 mg/kg into the tail vein of WT BALBc mice. Serum was collected 2 min, 10 min, 30 min, 1 h, 4 h, 24 h, 48 h, and 72 h post-injection for MAM279 conjugate injected at 1 mg/kg, and 2 min, 30 min, 4 h, 24 h, 30 h, 48 h, 72 h, 96 h, and 168 h post-injection for MAM279 conjugate injected at 0.1 mg/kg, 0.01 mg/kg and 0.001 mg/kg. Serum was collected 2 min, 30 min, 4 h, 24 h, 30 h, 48 h, 72 h, 96 h, and 168 h post-injection for Rova antibody injected at 1 mg/kg. DARPins and Rova were detected and measured by ELISA. Rova PK characteristics were calculated with time points between 4 h and 168 h and MAM279 conjugate PK characteristics were calculated with time points between 4 h and 72 h. The data were expressed as the DARPin or Rova concentration in serum (nmol/L). Results are shown in FIGS. 19A and 19B and Table 22.

T3 sequence (P07724 25-608 limits assumed): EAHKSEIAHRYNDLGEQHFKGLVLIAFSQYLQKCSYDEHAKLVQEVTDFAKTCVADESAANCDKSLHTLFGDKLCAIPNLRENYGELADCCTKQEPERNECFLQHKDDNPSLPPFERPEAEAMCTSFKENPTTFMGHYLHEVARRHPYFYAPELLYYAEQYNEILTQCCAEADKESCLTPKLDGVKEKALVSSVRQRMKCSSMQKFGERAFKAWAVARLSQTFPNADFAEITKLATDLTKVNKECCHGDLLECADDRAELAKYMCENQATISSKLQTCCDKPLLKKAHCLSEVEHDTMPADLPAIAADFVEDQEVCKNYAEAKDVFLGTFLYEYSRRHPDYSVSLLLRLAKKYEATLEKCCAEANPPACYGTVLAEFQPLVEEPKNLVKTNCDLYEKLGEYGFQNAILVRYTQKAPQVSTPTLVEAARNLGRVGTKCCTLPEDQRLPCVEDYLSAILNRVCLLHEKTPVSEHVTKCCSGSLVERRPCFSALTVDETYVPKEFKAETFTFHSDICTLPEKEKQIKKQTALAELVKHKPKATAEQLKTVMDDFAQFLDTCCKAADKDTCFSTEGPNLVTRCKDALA

B1: MAM160 (two domain ankyrin repeat protein, N-terminal His6-TEV tag) (designed binder)
chain: MRGSHHHHHHENLYFQDLGKKLLEAARAGQDDEVRELLKAGADVNAKDYFSHTPLHLAARNGHLKIVEVLLKAGADVNAKDFAGKTPLHLAADAGHLEIVEVLLKAGADVNAQDIFGKTPADIAADAGHEDIAEVLQKAAGSPTPTPTTPTPTPTTPTPTPTGSDLGTKLLSAAADGQDDEVRELLQAGADVNAKDLFGYTPLHLAAWRGHLEIVEVLLEAGADVNAKDAAGLTPLHLAAWFGHLEIVEVLLEAGADVNAQDVQGVTPADLAAKEGHEDIAEVLQQAA
notes: also called 2D DARPin
Kd (human serum albumin): 95.9 nM
koff (human serum albumin): 0.0105 s⁻¹
kon (human serum albumin): 110000 M⁻¹ s⁻¹
Kd [1]: 1.99 nM
koff [1]: 2.01e-05 s⁻¹
kon [1]: 10100 M⁻¹ s⁻¹
Kd (mouse serum albumin): 336 nM
koff (mouse serum albumin): 0.0271 s⁻¹
kon (mouse serum albumin): 80400 M⁻¹ s⁻¹
EC50 [2]: 18.9 nM
EC50 [3]: 36.6 nM

B2: MAM283 conjugate: SEQ ID NO: 16 conjugated to DOTAM-maleimide, labelled with Pb-212 (natural lead in PK studies) (conjugate)
chain: GSDLGKKLLEAARAGQDDEVRELLKAGADVNAKDYFSHTPLHLAARNGHLKIVEVLLKAGADVNAKDFAGKTPLHLAADAGHLEIVEVLLKAGADVNAQDIFGKTPADIAADAGHEDIAEVLQKAAGSPTPTPTTPTPTPTTPTPTPTGSDLGKKLLAAAADGQDDEVRELLQAGADVNAKDLFGYTPLHLAAWRGHLEIVEVLLEAGADVNAKDAAGETPLHLAAWFGHLEIVEVLLEAGADVNAQDVQGKTPADLAAKEGHEDIAEVLQQAAGSGSC
modifications: DOTAM-maleimide, Pb-212 label; Ankyrin repeat protein with tag (GS-MAM283-tag)
appearance of animals ([4]; Pb-212 labelled conjugate injected once at 10 μCi, 20 μCi and 30 μCi i.v., WT CD1 mice): animals appeared healthy and active
body weight (BW) change ([4]; Pb-212 labelled conjugate injected once at 10 μCi, 20 μCi and 30 μCi, WT CD1 mice, recovered within up to about 10 days): Minimal weight loss
toxicity ([4]; Pb-212 labelled conjugate, injected dose of 60 μCi, WT CD1 mice): Toxicity was observed
hematology profile (white blood cells, lymphocytes, monocytes, neutrophils) ([4]; within up to 28 days after injection of 10 μCi, 20 μCi and 30 μCi doses (data not shown)): complete recovery
serum half-life [5]: 12.7 h
